These results are taken from patent publication US20250368742A1.

What is called EC50 is the concentration needed to bring the measured effect to its halfway point.

Sequences and labels used below:
B1: #39 (antibody, V domains shown)
VH: QVQLQQSGAELVRPGTSVKVSCKASGYAFTDYLIEWVKQRPGQGLEWIGGINPGSGSTNYNEKFKGKAILTADKSSSTAYMQLSSLTSDDSAVYFCARLDGNYVGYWGQGTTLTVSS
VL: DILLTQSPASLSASVGETVTITCRASGNIHNYLAWYQQKQGKSPQLLVYHAKTLADGVPSRFSGSGSGTQYSLKINSLQPEDFGSYYCQHFWSTPWTFGGGTKLEIK
B2: #31 (antibody, V domains shown)
VH: EVQLQQSGPELVKPGASVKVSCKASGYAFTKYNIYWVKQSHGKSLEWIGYIDPYNGGTVQNQKFKGKATLTVDKSSSTAYMHLNSLTSEDSAVYYCATTDGYSLFTYWGQGTLVTVSS
VL: DIQMTQTTSSLSASLGDRVTISCRASQDIGNYLNWYQQKPDGTVKLLIYYTSRLHSGVPSRFSGSGSGTDYSLTISNLEQEDIATYFCQQGNTLPFTFGSGTKLEIK
B3: #34 (antibody, V domains shown)
VH: B2 VH with E1Q, Q5K
VL: DIVLTQSPTTMAASPGEKITITCSASSSISSNYLHWYQQKPGFSPKLLIYRTSNLASGVPARFSGSGSGTSYSLTIGTMEAEDVATYYCQQGSSIPFTFGSGTKLEIK
B4: #40 (antibody, V domains shown)
VH: B2 VH with E1Q, Q60Y, S118A
VL: DIQMTQTTSSLSASLGDRVTITCSAGQGINNYLNWYQQKPDGTVKLLIFYTSSLQSGVPSRFSGSGSGADYSLTISNLEPEDIATYYCQQYSKLPLTFGAGTKLELK
B5: #36 (antibody, V domains shown)
VH: B2 VH with E1Q, Q60Y, S118A
VL: B2 VL with G30S
B6: #38 (antibody, V domains shown)
VH: QVQLQQSGAELARPGASVKLSCKASGYTFSIHWMQWVKQRPGQGLEWIGAIYPGNGDTKYTQKFKGKATLTADKSSSTAYMQLSNLASEDSAVYYCATLYGNYEAYWGQGTLVTVSA
VL: DIVLTQSPASLSASVGETVTITCGASENIYGALNWYQRKQGKSPQLLIYGTTNLADGMSSRFSGSGSGRQYSLKISSLHPDDVATYYCQNVLTTPPWTFGGGTKLEIK
B7: 13A9 (antibody, human IgG1, kappa, V domains shown)
VH: QVQLQQSGAELVRPGTSVKVSCKASGYAFTNYLIEWVKQRPGQGLEWIGAINPGSGATNYNEKFKDKARLTADKSSNTAYLQFSSLTSDDSAVYFCARFLGNYFDNWGQGATLTVSS
VL: DIQMTQSPASLSASVGETVTITCRASGNIHSYLAWYQQKQGKSPQLLVYYAETLADGVPSRFSGRGSGTQYSLKINSLQPEDFGSYFCQQFWTTPYTFGGGTKVEIKR
B8: 3F9 (antibody, human IgG1, kappa, V domains shown)
VH: QVQLVESGGGLVKPGGSLRLSCAASGFTFSNYAMSWIRQAPGKGLEWVSYISPGGDYIYYADSVKGRFTISRDNAKNSLYLQMNSLRAEDTAVYYCTTDRRHYGSYAMDYWGQGTLVTVSS
VL: DIVMTQSPLSLPVTPGEPASISCRSSKSLLHSNLNTYLYWFLQKPGQSPQILIYRMSNLASGVPDRFSGSGSGTAFTLKISRVEAEDVGVYYCMQHLEYPFTFGPGTKLEIKR
B9: 6E1.1.12 (antibody, human IgG1, kappa, V domains shown)
VH: QGQMQQSGAELVKPGASVKLSCKTSGFTFSDNYISWLKQKPGQSLEWIAWIYAGTGGSSYNQKFRDKAQLTVDTSSRTAYMQLSSLTTEDSAIYYCARHDYYGTSGAWFAYWGRGTLVTVSA
VL: DVLMTQTPLSLPVSLGDQASISCRSSQHIVHSNENTYLEWYLQKPGQSPKLLIYKVSNRFSGVPDRFSGSGSGTDFTLKISRVEAEDLGVYYCFQGSHVPWTFGGGTKVEIKR

Positions count from the first letter of the chain named.

In one assay the target is shed MICA008 polypeptide (human) (UniProt Q29983). The assay can be described thus: capture ELISA (anti-hFc / antibody / shed antigen / biotin-6D4). (In general: ELISA stands for enzyme-linked immunosorbent assay.)
B1 showed an EC50 of 0.52 µg/mL and a Max OD450 of 0.03.

Turning to B2, the EC50 came out at 0.26 µg/mL and the Max OD450 came out at 0.19.

Regarding B3, the EC50 came to 0.3 µg/mL and the Max OD450 came out at 0.12.

B4 came in with an EC50 of 0.44 µg/mL and a Max OD450 of 0.13.

With B5, the concentration giving a half-maximal response (EC50) amounted to 0.38 µg/mL and the Max OD450 turned out to be 0.16.

The molecule B6 came in with an EC50 of 0.2 µg/mL and a Max OD450 of 0.16.

As for B7, the EC50 is 0.22 µg/mL and the Max OD450 amounted to 0.15.

For B8, the EC50 turned out to be 0.22 µg/mL and the Max OD450 is 0.34.

In the case of B9, the EC50 turned out to be 0.22 µg/mL and the Max OD450 stood at 0.15.

In another assay the target is shed MICA004 polypeptide (human) (UniProt Q29983). The assay is described as above.
With B1, the EC50 is 0.34 µg/mL and the Max OD450 was determined as 0.11.

In turn, B2 showed an EC50 of 0.2 µg/mL and a Max OD450 of 1.72.

For B3, the EC50 was 0.46 µg/mL and the Max OD450 turned out to be 1.23.

As to B4, the EC50 is 0.38 µg/mL and the Max OD450 was determined as 1.22.

For B5, the EC50 is 0.47 µg/mL and the Max OD450 amounted to 1.31.

The molecule B6 yielded an EC50 of 0.09 µg/mL and a Max OD450 of 2.66.

Take B7: the concentration giving a half-maximal response (EC50) came to 0.33 µg/mL and the Max OD450 was 0.89.

In the case of B8, the EC50 amounted to 0.14 µg/mL and the Max OD450 worked out at 2.49.

For B9, the EC50 came to 0.42 µg/mL and the Max OD450 was found to be 1.13.

A further assay addresses shed MICA002 polypeptide (human) (UniProt Q29983). The description is as above.
B1 gave an EC50 of 0.36 µg/mL and a Max OD450 of 1.01.

For B2, the EC50 worked out at 0.13 µg/mL and the Max OD450 was determined as 3.16.

The molecule B3 returned an EC50 of 0.34 µg/mL and a Max OD450 of 2.75.

B4 displayed an EC50 of 0.31 µg/mL and a Max OD450 of 2.89.

In the case of B5, the EC50 amounted to 0.32 µg/mL and the Max OD450 was determined as 3.

As for B6, the EC50 was found to be 0.04 µg/mL and the Max OD450 is 3.32.

Molecule B7 showed an EC50 of 0.14 µg/mL and a Max OD450 of 3.1.

In the case of B8, the half-maximal effective concentration (EC50) was 0.09 µg/mL and the Max OD450 amounted to 3.3.

B9 gave an EC50 of 0.22 µg/mL and a Max OD450 of 3.35.

A further assay concerns the target shed MICB005 polypeptide (human) (UniProt Q29980). Described as above.
Take B1: the EC50 was found to be 0.1 µg/mL and the Max OD450 is 2.86.

With B2, the EC50 is 0.72 µg/mL and the Max OD450 is 1.37.

B3 returned an EC50 of 0.56 µg/mL and a Max OD450 of 0.17.

The molecule B4 displayed an EC50 of 0.73 µg/mL and a Max OD450 of 0.17.

With B5, the EC50 came to 0.84 µg/mL and the Max OD450 came out at 0.68.

B6 displayed an EC50 of 0.02 µg/mL and a Max OD450 of 2.97.

In turn, B7 came in with an EC50 of 0.04 µg/mL and a Max OD450 of 2.91.

The molecule B9 had an EC50 of 0.41 µg/mL and a Max OD450 of 2.42.

The target of the next assay is shed MICA008 polypeptide (human) (UniProt Q29983). Described as above. The source holds these as a separate data set.
B7: the EC50 worked out at 0.191 µg/mL and the Max OD450 came out at 0.48.

On to B8, for which the EC50 was 0.105 µg/mL and the Max OD450 is 1.15.

In a further assay the target is shed MICA004 polypeptide (human) (UniProt Q29983). The description is as above. The source holds these as a separate data set.
Molecule B7 returned an EC50 of 0.47 µg/mL and a Max OD450 of 0.35.

For B8, the EC50 was 0.129 µg/mL and the Max OD450 came to 1.83.

The target of the next assay is shed MICA002 polypeptide (human) (UniProt Q29983). The description is as above. This is another data set of the same source.
With B7, the EC50 is 0.176 µg/mL and the Max OD450 amounted to 1.42.

B8 registered an EC50 of 0.107 µg/mL and a Max OD450 of 1.82.

A further assay addresses shed MICB005 polypeptide (human) (UniProt Q29980). The assay is described as above. The source holds these as a separate data set.
Turning to B7, the EC50 worked out at 0.088 µg/mL and the Max OD450 was 1.28.

A further assay has as its target shed MICA008 polypeptide (human) (UniProt Q29983). The assay is described as above. The source holds these as a separate data set.
B8 had an EC50 of 0.134 µg/mL and a maxOD of 1.51.

The target in a further assay is shed MICA004 polypeptide (human) (UniProt Q29983). The description is as above. The source holds these as a separate data set.
B8 had an EC50 of 0.255 µg/mL and a maxOD of 2.7.

The target of another assay is shed MICA002 polypeptide (human) (UniProt Q29983). The assay is described as above. This is another data set of the same source.
In the case of B8, the EC50 amounted to 0.131 µg/mL and the maxOD turned out to be 3.96.

The target is the same in another assay. The assay can be described thus: ELISA: antibody titrated on anti-hFc plate, shed MICA002 captured, detection NKG2D-His + anti-His-HRP.
Regarding B7, the EC50 turned out to be 0.06 µg/mL.

Turning to B8, the EC50 stood at 0.167 µg/mL.

The target of a further assay is shed MICA004 polypeptide (human) (UniProt Q29983). The assay can be described thus: ELISA: antibody titrated on anti-hFc plate, shed MICA004 captured, detection NKG2D-His + anti-His-HRP.
On to B7, for which the EC50 was 0.083 µg/mL.

In the case of B8, the EC50 was determined as 0.071 µg/mL.
